Measurements reported in patent publication US20120034228A1 (MICROMET, published 2012).

T1: 1-27 CD3-EpCAM comprising the squirrel monkey 27 mer (Saimiri sciureus; cynomolgus)
T1 construct: on transfected cells
T1 chain: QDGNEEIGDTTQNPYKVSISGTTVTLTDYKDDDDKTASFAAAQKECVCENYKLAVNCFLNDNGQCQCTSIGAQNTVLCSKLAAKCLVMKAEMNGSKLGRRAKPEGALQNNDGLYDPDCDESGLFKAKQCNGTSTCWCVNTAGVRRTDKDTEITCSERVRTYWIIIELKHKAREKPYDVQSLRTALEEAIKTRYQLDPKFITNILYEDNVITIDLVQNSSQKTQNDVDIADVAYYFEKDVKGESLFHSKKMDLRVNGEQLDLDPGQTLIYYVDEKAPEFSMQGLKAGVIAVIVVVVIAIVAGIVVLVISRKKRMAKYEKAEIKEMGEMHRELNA

T2: 1-27 CD3-EpCAM comprising the human 27 mer (human; cynomolgus)
T2 construct: on transfected cells
T2 chain: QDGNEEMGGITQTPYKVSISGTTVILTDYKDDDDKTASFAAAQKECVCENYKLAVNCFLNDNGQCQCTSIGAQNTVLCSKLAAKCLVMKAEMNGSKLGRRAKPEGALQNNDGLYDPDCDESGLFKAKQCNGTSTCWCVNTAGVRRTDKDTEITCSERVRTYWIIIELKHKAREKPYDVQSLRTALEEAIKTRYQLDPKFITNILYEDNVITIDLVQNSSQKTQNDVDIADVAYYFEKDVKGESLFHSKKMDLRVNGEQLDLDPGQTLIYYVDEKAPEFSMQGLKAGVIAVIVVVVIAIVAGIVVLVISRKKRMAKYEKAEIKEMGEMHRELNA

T3: 1-27 CD3-EpCAM comprising the marmoset 27 mer (Callithrix jacchus; cynomolgus)
T3 construct: on transfected cells
T3 chain: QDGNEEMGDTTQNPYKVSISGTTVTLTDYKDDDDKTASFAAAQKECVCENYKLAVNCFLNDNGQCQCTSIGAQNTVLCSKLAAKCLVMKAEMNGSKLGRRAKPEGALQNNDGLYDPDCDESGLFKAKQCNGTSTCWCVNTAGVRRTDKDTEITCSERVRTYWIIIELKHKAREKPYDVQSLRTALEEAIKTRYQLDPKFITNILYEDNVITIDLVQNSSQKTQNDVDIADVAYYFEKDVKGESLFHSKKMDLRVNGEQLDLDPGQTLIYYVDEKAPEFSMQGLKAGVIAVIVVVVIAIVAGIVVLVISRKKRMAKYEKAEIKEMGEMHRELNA


Tests used:
[1] = molecular target: human FAPalpha (on CHO cells) (human, UniProt Q12884 1-760); test: FACS on CHO cells
[2] = molecular target: macaque FAPalpha (on CHO cells) (macaque (Cynomolgus)); test: FACS on CHO cells
1-27 CD3-Fc = molecular target: T4, 1-27 CD3-Fc (human); test: ELISA on captured 1-27 CD3-Fc
T4 construct: aa 1-27 of mature human CD3 epsilon, hinge and Fc gamma of human IgG1, His6; also called human CD3 epsilon (aa 1-27)-Fc fusion protein; 27 aa huCD3E

[3] = molecular target: T1, 1-27 CD3-EpCAM comprising the squirrel …; test: FACS on transfected 293-HEK cells
[4] = molecular target: T2, 1-27 CD3-EpCAM comprising the human 27 …; test: FACS on transfected 293-HEK cells
[5] = molecular target: T3, 1-27 CD3-EpCAM comprising the marmoset …; test: FACS on transfected 293-HEK cells
[6] = molecular target: T5, human CD3 (on the human CD3 positive T cell leukemia cell line HPB-ALL) (human, UniProt P07766 23-207); test: FACS on HPB-ALL
T5 construct: whole, on cells; native CD3 complex on T cells; also called human CD3 epsilon
T5 sequence (P07766 23-207): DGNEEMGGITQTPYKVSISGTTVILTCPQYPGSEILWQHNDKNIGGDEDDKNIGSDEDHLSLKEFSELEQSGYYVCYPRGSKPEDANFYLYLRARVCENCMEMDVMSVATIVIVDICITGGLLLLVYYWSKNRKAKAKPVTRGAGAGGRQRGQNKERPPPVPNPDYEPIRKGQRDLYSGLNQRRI

Sequence of macaque FAPalpha (on CHO cells) (macaque (Cynomolgus)) (chain, as listed by the source): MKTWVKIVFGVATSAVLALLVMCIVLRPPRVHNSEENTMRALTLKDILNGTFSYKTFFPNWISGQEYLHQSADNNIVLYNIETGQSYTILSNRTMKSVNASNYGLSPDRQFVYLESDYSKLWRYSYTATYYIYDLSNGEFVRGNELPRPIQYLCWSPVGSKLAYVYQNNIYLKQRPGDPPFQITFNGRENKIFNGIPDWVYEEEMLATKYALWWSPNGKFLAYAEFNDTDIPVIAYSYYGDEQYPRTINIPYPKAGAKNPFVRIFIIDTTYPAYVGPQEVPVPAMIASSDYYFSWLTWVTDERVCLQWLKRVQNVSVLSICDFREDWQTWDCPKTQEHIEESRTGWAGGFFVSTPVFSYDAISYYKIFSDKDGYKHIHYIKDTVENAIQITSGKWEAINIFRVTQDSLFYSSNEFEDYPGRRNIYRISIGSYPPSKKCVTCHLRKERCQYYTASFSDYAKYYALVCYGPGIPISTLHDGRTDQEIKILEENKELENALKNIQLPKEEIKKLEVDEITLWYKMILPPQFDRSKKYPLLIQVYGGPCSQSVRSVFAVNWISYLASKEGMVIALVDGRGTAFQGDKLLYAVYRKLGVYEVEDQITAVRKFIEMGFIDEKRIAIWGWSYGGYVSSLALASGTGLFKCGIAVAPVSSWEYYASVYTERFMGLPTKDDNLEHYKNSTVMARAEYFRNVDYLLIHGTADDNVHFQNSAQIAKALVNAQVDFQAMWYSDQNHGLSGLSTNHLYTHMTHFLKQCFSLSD

| Binder | binding result [1] | binding result [2] | further results |
| --- | --- | --- | --- |
| 86D2HL (scFv, periplasmic preparation) scFv: EVQLLESGGGLVQPGGSLKLSCAASGFDFSTYWMSWVRQAPGKGLEWIGEINPDSSTINYTPSLKDKFIISRDNAKNTLYLQMNKVRSEDTALYYCAGGYYRYPYYYTMDYWGQGTTVTVSSGGGGSGGGGSGGGGSELVMTQSPASLSASVGETVTITCRASGNIHNYLAWYQQKQGKSPQLLVYNAKTLADGVPSRFSGSGSGTQYSLKINSLQPEDFGSYYCQHFWSTPYTFGGGTKLEIK | binds | binds |  |
| 86D6HL (scFv, periplasmic preparation) scFv: EVQLLESGGGLVQPGGSLKLSCAASGFDFSTYWMSWVRQAPGKGLEWIGEINPDSSTINYTPSLKDKFIISRDNAKNTLYLQMTKVRPEDTALYYCAGGYYRYPYYYTMDYWGQGTTVTVSSGGGGSGGGGSGGGGSELVMTQSPASLSASVGETVTITCRASGSIHNYLAWYQQKQGKSPQLLVYNAKTLADGVPSRFSGSGSGTQYSLKINSLQPEDFGSYYCQHFWSTPYTFGGGTKLEIK | binds | binds |  |
| 86F12HL (scFv, periplasmic preparation) scFv: EVQLLESGGGLVQPGGSLNLSCAASGFDFSTYWMSWVRQAPGKGLEWIGEINPDSSTINYTPSLKDKFIISRDNAKNTLYLQMNKVRSDDTALYYCAGGYYRYPYYYTMDYWGQGTTVTVSSGGGGSGGGGSGGGGSELQMTQSPASLSASVGETVTITCRASGNIHNYLAWYQQKQGKSPQLLVYNAKTLADGVPSRFSGSGSGTQYSLKINSLQPEDFGSYYCQHFWSTPYTFGGGTKLEIK | binds | binds |  |
| 86C12HL (scFv, periplasmic preparation) scFv: EVQLLESGGGLVQPGGSLKLSCAASGFDFSRSWMSWVRQAPGKGLEWIGEINPDSSTINYTPSLKDKFIISRDNAKNTLYLQMSKVRSEDTALYYCAGGYYRYPYYYTMDYWGQGTTVTVSSGGGGSGGGGSGGGGSELQMTQSPASLSASVGETVTITCRASGNIHNYLAWYQQKQGKSPQLLVYNAKTLADGVPSRFSGSGSGTQYSLKINSLQPEDFGSYYCQHFWSTPYTFGGGTKLEIK | binds | binds |  |
| 87G9HL (scFv, periplasmic preparation) scFv: EVQLLESGGGLVQPGGSLKLSCAASGFDFSRYWMSWVRQAPGKGLEWIGEINPDSSTINYTPSLKDKFIISRDNAKNTLYLQMSKVRSEDTALYYCAGGYYRYPYYYTMDYWGQGTTVTVSSGGGGSGGGGSGGGGSELVMTQSPASLSASVGETVTITCRASGNIHNYLAWYQQKQGKSPQLLVYNAKTLADGVPSRFSGSGSGTQYSLKINSLQPEDFGSYYCQHFWSTPYTFGGGTKLEIK | binds | binds |  |
| 86F10HL (scFv, periplasmic preparation) scFv: EVQLLESGGGLVQPGGSLKLSCAASGFDFSTYWMSWVRQAPGKGLEWIGEINPDSSTINYTPSLKDKFIISRDNAKNTLYLQMNKVRSDDTALYYCAGGYYRYPYYYTMDYWGQGTTVTVSSGGGGSGGGGSGGGGSELVMTQSPSSLSASVGETVTITCRASGNIHNYLAWYQQKQGKSPQLLVYNAKTLADGVPSRFSGSGSGTQYSLKINSLQPEDFGSYYCQHFWSTPYTFGGGTKLEIK | binds | binds |  |
| A2J HLP (scFv, crude periplasmic preparation, Flag and His6 tags) scFv: EVQLLESGGGLVQPGGSLKLSCAASGFTFNVYAMNWVRQAPGKGLEWVARIRSKYNNYATYYADSVKKRFTISRDDSKNTAYLQMNNLKTEDTAVYYCVRHGNFGNSYLSWWAYWGQGTLVTVSSGGGGSGGGGSGGGGSELVVTQEPSLTVSPGGTVTLTCRSSTGAVTSGYYPNWVQQKPGQAPRGLIGATDMRPSGTPARFSGSLLGGKAALTLSGVQPEDEAEYYCALWYSNRWVFGGGTKLTVL |  |  | binding result (1-27 CD3-Fc): binds |
| E2M HLP (scFv, crude periplasmic preparation, Flag and His6 tags) scFv: EVQLLESGGGLVQPGGSLKLSCAASGFTFNGYAMNWVRQAPGKGLEWVARIRSKYNNYATYYADSVKERFTISRDDSKNTAYLQMNNLKTEDTAVYYCVRHRNFGNSYLSWFAYWGQGTLVTVSSGGGGSGGGGSGGGGSELVVTQEPSLTVSPGGTVTLTCRSSTGAVTSGYYPNWVQQKPGQAPRGLIGATDMRPSGTPARFSGSLLGGKAALTLSGVQPEDEAEYYCALWYSNRWVFGGGTKLTVL |  |  | binding result [3]: binds; binding result [4]: binds; binding result [5]: binds; binding result (1-27 CD3-Fc): binds |
| MCSP-G4 HLP x E2M HLP (bispecific antibody, C-terminal His6 tag added) QVQLVQSGAEVKRPGASMKVSCKASGYTFTNYYIHWVRQAPGQGLEWMGWINPNSGATNYAQKFQGRVTMTRDTSTSTVYMELSSLRSEDTAVYYCAKSWVSWFASWGQGTLVTVSSGGGGSGGGGSGGGGSELVMTQSPDSLAVSLGERATINCKSSQSVLNSSNNRNYLAWYQQKPGQPPKLLIYWASTRESGVPDRFSGSGSGTDFTLTISGLQAEDVAVYYCQQHYSTPFTFGPGTKVDIKSGGGGSEVQLLESGGGLVQPGGSLKLSCAASGFTFNGYAMNWVRQAPGKGLEWVARIRSKYNNYATYYADSVKERFTISRDDSKNTAYLQMNNLKTEDTAVYYCVRHRNFGNSYLSWFAYWGQGTLVTVSSGGGGSGGGGSGGGGSELVVTQEPSLTVSPGGTVTLTCRSSTGAVTSGYYPNWVQQKPGQAPRGLIGATDMRPSGTPARFSGSLLGGKAALTLSGVQPEDEAEYYCALWYSNRWVFGGGTKLTVL |  |  | binding result [6]: binds |

Now from value to binder, other results behind:

| binding result [1] | binding result [2] | Binder | further results |
| --- | --- | --- | --- |
| binds | binds | 86E5HL (scFv, periplasmic preparation) scFv: EVQLLESGGGLVQPGGSLKLSCAASGFDFSRSWMSWVRQAPGKGLEWIGEINPDSSTINYTPSLKDKFIISRDNAKNTLYLQMSKVRSEDTALYYCAGGYYRYPYYYTMDYWGQGTTVTVSSGGGGSGGGGSGGGGSELQMTQSPASLSASVGETVTITCRASENIYSYLAWYQQKQGKSPQLLVYNAKTLAEGVPSRFSGSGSRTQYSLKINSLQPEDFGSYYCQHFWSTPYTFGGGTKLEIK |  |
| binds | binds | 86F2HL (scFv, periplasmic preparation) scFv: EVQLLESGGGLVQPGGSLKLSCAASGFDFSTYWMSWVRQAPGKGLEWIGEINPDSSTVNYTPSLKDKFIISRDNAKNTLYLQMTKVRSEDTALYYCAGGYYRYPYYYTMDYWGQGTTVTVSSGGGGSGGGGSGGGGSELQMTQSPASLSASVGETVTITCRASGNIHNYLAWYQQKQGKSPQLLVYNAKTLADGVPSRFSGSGSGTQYSLKINSLQPEDFGSYYCQHFWSTPYTFGGGTKLEIK |  |
